According to patent publication US9096650B2, “Cyclic oligopeptides for binding to a target ligand” (LEXCICON LIMITED, priority 2006, dated 2015):
Blank lines part the entries; values can stand above or below the molecule they belong to. Bridges are numbered along the chain shown (N, C = ends). [ ]: non-standard residue; d: D form. Gly(decyl) = CCCCCCCCCC[C@H](N)C(=O)O

Tests used:
[1] = molecular target: thrombin (Homo sapiens, UniProt P00734); experiment: Inhibition of enzyme activity of thrombin, fluorogenic substrate (Example 7); assay type: biochemical
Experimental: 1. Cyclic oligopeptides of the following structures were synthesised as previously described, and prepared in complexed form with cyclodextrin at concentration of 1 mg/ml on Hanks Balanced Salts Solution using the procedure outlined in example 6. (i) cyclo(-R-E-Σ-S-R-E-R-Σ-S-E-) (ii) cyclo(-A-K-ΣE-Y-K-A-ΣY-E-) (iii) cyclo(-dF-R-C-S-dF-R-C-S-) (iv) cyclo(-dF-S-C-R-dF-S-C-R-)
2. In wells of a […] microplate, 20 ul of thrombin solution (0.01 mg/ml) were dispensed, and mixed with 60 ul of cyclic oligopeptide solution
3. 20 ul of the substrate boc-beta-benzyl-Asp-Pro-Arg-7-amido-4-methylcoumarin hydrochloride (0.01 mg/ml) was added to each well, and the time course of generation of […] was measured.

[2] = system: J774A.1 cells (a macrophage cell line); experiment: Suppression of LPS-stimulated TNF secretion by cyclic oligopeptides containing two different epitopes (Example 8); assay type: cell-based; settings: LPS 0.1 ug/ml
Experimental: • 1. Two cyclic oligopeptides were prepared with the following structures: (i) cyclo(-dF-S-Σ-Q-dL-S-Σ-R-) • and (ii) cyclo(-dF-S-Σ-L-dQ-S-Σ-R) • All amino acids are in the L form unless indicated otherwise. • All amino acids are linked by peptide bonds. wherein Q, L, S, R and F represent the epitope-forming amino acids and Σ represents the associating functional group borne on the associating amino acid wherein the associating amino acid is an L-alpha aminocarboxylic acid and the associating functional group is a side-chain residue consisting of a straight aliphatic chain containing ten carbon atoms.
These cyclic oligopeptides were prepared as solutions in transcutol/cyclodextrin, as described in example 4, to give a final concentration of peptide of 1 mg/ml, and cyclodextrin at 20 mg/ml. • 2. J774A.1 cells (a macrophage cell line) were plated out in all the wells of three 24-well cluster plates at a seeding density of 3×10^5 cells/ml/well (1 ml RPMI 1640 culture medium per well), and incubated overnight at 37° C. in 5% CO2/air. • 3. The following day, the solutions from step 1 were administered to wells containing cells in step 2, to give three wells each with a final concentration of 50, 25, 12.5, 6.25 or 3.125 ug/ml of cyclic oligopeptide. Additional wells containing cyclodextrin at 1, 0.5, 0.25, 0.125 and 0.0625 mg/ml were also prepared. The remaining wells were left untreated. The plate was incubated for a further four hours at 37 degC. • 4. Lipopolysaccharide (from E. coli strain 0111 B4) was added to the wells receiving the octapeptide solution, as well as three of the wells receiving no peptide. The final concentration of lipopolysaccharide was 0.1 ug/ml. • 5. The plate was incubated overnight, and the following day the supernatants were assayed for TNF using a commercial ELISA kit.

[3] = molecular target: thrombin; experiment: cell-based or functional assay
[4] = time 2.0 minutes, enzyme alone 770.9, lower = more inhibition
[5] = time 5.0 minutes, enzyme alone 1821.1
[6] = time 10.0 minutes, enzyme alone 2163.5
[7] = time 15.0 minutes, enzyme alone 2253.2
[8] = time 20.0 minutes, enzyme alone 2345.8
[9] = time 25.0 minutes, enzyme alone 2359.0

Thrombin proteolytic activity (Fluorescence Units - Arbitrary Units) [1, 4]: 523.2 Arbitrary Units
Thrombin proteolytic activity (Fluorescence Units - Arbitrary Units) [1, 5]: 1205.3 Arbitrary Units
Thrombin proteolytic activity (Fluorescence Units - Arbitrary Units) [1, 6]: 1586.9 Arbitrary Units
Thrombin proteolytic activity (Fluorescence Units - Arbitrary Units) [1, 7]: 1751.7 Arbitrary Units
Thrombin proteolytic activity (Fluorescence Units - Arbitrary Units) [1, 8]: 1843.1 Arbitrary Units
Thrombin proteolytic activity (Fluorescence Units - Arbitrary Units) [1, 9]: 1864.8 Arbitrary Units
Molecule: cyclo(-dF-S-C-R-dF-S-C-R-) (cyclo([dF]SCR[dF]SCR); disulfide 3-7; SMILES N=C(N)NCCC[C@@H]1NC(=O)[C@@H]2CSSC[C@H](NC(=O)[C@H](CO)NC(=O)[C@@H](Cc3ccccc3)NC1=O)C(=O)N[C@@H](CCCNC(=N)N)C(=O)N[C@H](Cc1ccccc1)C(=O)N[C@@H](CO)C(=O)N2) [Example 7 (iv), cysteines in the ring are oxidised to form an internal bridge]

Inhibition of Thrombin proteolytic activity (Fluorescence Units - Arbitrary Units) at 2.0 minutes; control (enzyme alone) 770.9 (Fluorescence Units - Arbitrary Units) [3]: 523
Inhibition of Thrombin proteolytic activity (Fluorescence Units - Arbitrary Units) at 5.0 minutes; control (enzyme alone) 1821.1 (Fluorescence Units - Arbitrary Units) [3]: 1210
Inhibition of Thrombin proteolytic activity (Fluorescence Units - Arbitrary Units) at 10.0 minutes; control (enzyme alone) 2163.5 (Fluorescence Units - Arbitrary Units) [3]: 1590
Inhibition of Thrombin proteolytic activity (Fluorescence Units - Arbitrary Units) at 15.0 minutes; control (enzyme alone) 2253.2 (Fluorescence Units - Arbitrary Units) [3]: 1750
Inhibition of Thrombin proteolytic activity (Fluorescence Units - Arbitrary Units) at 20.0 minutes; control (enzyme alone) 2345.8 (Fluorescence Units - Arbitrary Units) [3]: 1840
Inhibition of Thrombin proteolytic activity (Fluorescence Units - Arbitrary Units) at 25.0 minutes; control (enzyme alone) 2359.0 (Fluorescence Units - Arbitrary Units) [3]: 1860
B4: cyclo(-dF-S-C-R-dF-S-C-R-) (peptide)
peptide: cyclo([dF]SCR[dF]SCR)
modifications: disulfide 3-7
SMILES: N=C(N)NCCC[C@@H]1NC(=O)[C@@H]2CSSC[C@H](NC(=O)[C@H](CO)NC(=O)[C@@H](Cc3ccccc3)NC1=O)C(=O)N[C@@H](CCCNC(=N)N)C(=O)N[C@H](Cc1ccccc1)C(=O)N[C@@H](CO)C(=O)N2

Second part, the molecule before the results:

Molecule: cyclo(-dF-S-Σ-L-dQ-S-Σ-R) [Example 8 (ii)]
Thrombin proteolytic activity (Fluorescence Units - Arbitrary Units) [1, 4]: 410.8 Arbitrary Units
Thrombin proteolytic activity (Fluorescence Units - Arbitrary Units) [1, 5]: 816.4 Arbitrary Units
Thrombin proteolytic activity (Fluorescence Units - Arbitrary Units) [1, 6]: 1189.4 Arbitrary Units
Thrombin proteolytic activity (Fluorescence Units - Arbitrary Units) [1, 7]: 1398.6 Arbitrary Units
Thrombin proteolytic activity (Fluorescence Units - Arbitrary Units) [1, 8]: 1592.1 Arbitrary Units
Thrombin proteolytic activity (Fluorescence Units - Arbitrary Units) [1, 9]: 1673.2 Arbitrary Units
TNF concentration ([2]; peptide 3.125 ug/ml, 2856 = maximum detectable limit): 2648 ± 43 pg/mL
TNF concentration ([2]; peptide 6.25 ug/ml): 2325 ± 67 pg/mL
TNF concentration ([2]; peptide 12.5 ug/ml): 1748 ± 20 pg/mL
TNF concentration ([2]; peptide 25 ug/ml): 1437 ± 85 pg/mL
TNF concentration ([2]; peptide 50 ug/ml): 1081 ± 142 pg/mL

B1: cyclo(-A-K-ΣE-Y-K-A-ΣY-E-) (peptide)
peptide: cyclo(AK[Gly(decyl)]EYKA[Gly(decyl)]YE)
SMILES: CCCCCCCCCC[C@@H]1NC(=O)[C@H](C)NC(=O)[C@H](CCCCN)NC(=O)[C@H](Cc2ccc(O)cc2)NC(=O)[C@H](CCC(=O)O)NC(=O)[C@H](CCCCCCCCCC)NC(=O)[C@H](CCCCN)NC(=O)[C@H](C)NC(=O)[C@H](CCC(=O)O)NC(=O)[C@H](Cc2ccc(O)cc2)NC1=O
Inhibition of Thrombin proteolytic activity (Fluorescence Units - Arbitrary Units) at 2.0 minutes; control (enzyme alone) 770.9 (Fluorescence Units - Arbitrary Units) [3]: 411
Inhibition of Thrombin proteolytic activity (Fluorescence Units - Arbitrary Units) at 5.0 minutes; control (enzyme alone) 1821.1 (Fluorescence Units - Arbitrary Units) [3]: 816
Inhibition of Thrombin proteolytic activity (Fluorescence Units - Arbitrary Units) at 10.0 minutes; control (enzyme alone) 2163.5 (Fluorescence Units - Arbitrary Units) [3]: 1190
Inhibition of Thrombin proteolytic activity (Fluorescence Units - Arbitrary Units) at 15.0 minutes; control (enzyme alone) 2253.2 (Fluorescence Units - Arbitrary Units) [3]: 1400
Inhibition of Thrombin proteolytic activity (Fluorescence Units - Arbitrary Units) at 20.0 minutes; control (enzyme alone) 2345.8 (Fluorescence Units - Arbitrary Units) [3]: 1590
Inhibition of Thrombin proteolytic activity (Fluorescence Units - Arbitrary Units) at 25.0 minutes; control (enzyme alone) 2359.0 (Fluorescence Units - Arbitrary Units) [3]: 1670

B2: cyclo(-R-E-Σ-S-R-E-R-Σ-S-E-) (peptide)
peptide: cyclo(RE[Gly(decyl)]SRER[Gly(decyl)]SE)
SMILES: CCCCCCCCCC[C@@H]1NC(=O)[C@H](CCCNC(=N)N)NC(=O)[C@H](CCC(=O)O)NC(=O)[C@H](CCCNC(=N)N)NC(=O)[C@H](CO)NC(=O)[C@H](CCCCCCCCCC)NC(=O)[C@H](CCC(=O)O)NC(=O)[C@H](CCCNC(=N)N)NC(=O)[C@H](CCC(=O)O)NC(=O)[C@H](CO)NC1=O
Inhibition of Thrombin proteolytic activity (Fluorescence Units - Arbitrary Units) at 2.0 minutes; control (enzyme alone) 770.9 (Fluorescence Units - Arbitrary Units) [3]: 411
Inhibition of Thrombin proteolytic activity (Fluorescence Units - Arbitrary Units) at 5.0 minutes; control (enzyme alone) 1821.1 (Fluorescence Units - Arbitrary Units) [3]: 816
Inhibition of Thrombin proteolytic activity (Fluorescence Units - Arbitrary Units) at 10.0 minutes; control (enzyme alone) 2163.5 (Fluorescence Units - Arbitrary Units) [3]: 1190
Inhibition of Thrombin proteolytic activity (Fluorescence Units - Arbitrary Units) at 15.0 minutes; control (enzyme alone) 2253.2 (Fluorescence Units - Arbitrary Units) [3]: 1400
Inhibition of Thrombin proteolytic activity (Fluorescence Units - Arbitrary Units) at 20.0 minutes; control (enzyme alone) 2345.8 (Fluorescence Units - Arbitrary Units) [3]: 1590
Inhibition of Thrombin proteolytic activity (Fluorescence Units - Arbitrary Units) at 25.0 minutes; control (enzyme alone) 2359.0 (Fluorescence Units - Arbitrary Units) [3]: 1670

B3: cyclo(-dF-R-C-S-dF-R-C-S-) (peptide)
peptide: cyclo([dF]RCS[dF]RCS)
modifications: disulfide 3-7
SMILES: N=C(N)NCCC[C@@H]1NC(=O)[C@@H](Cc2ccccc2)NC(=O)[C@H](CO)NC(=O)[C@@H]2CSSC[C@H](NC1=O)C(=O)N[C@@H](CO)C(=O)N[C@H](Cc1ccccc1)C(=O)N[C@@H](CCCNC(=N)N)C(=O)N2
Inhibition of Thrombin proteolytic activity (Fluorescence Units - Arbitrary Units) at 2.0 minutes; control (enzyme alone) 770.9 (Fluorescence Units - Arbitrary Units) [3]: 634
Inhibition of Thrombin proteolytic activity (Fluorescence Units - Arbitrary Units) at 5.0 minutes; control (enzyme alone) 1821.1 (Fluorescence Units - Arbitrary Units) [3]: 1370
Inhibition of Thrombin proteolytic activity (Fluorescence Units - Arbitrary Units) at 10.0 minutes; control (enzyme alone) 2163.5 (Fluorescence Units - Arbitrary Units) [3]: 1790
Inhibition of Thrombin proteolytic activity (Fluorescence Units - Arbitrary Units) at 15.0 minutes; control (enzyme alone) 2253.2 (Fluorescence Units - Arbitrary Units) [3]: 1980
Inhibition of Thrombin proteolytic activity (Fluorescence Units - Arbitrary Units) at 20.0 minutes; control (enzyme alone) 2345.8 (Fluorescence Units - Arbitrary Units) [3]: 2110
Inhibition of Thrombin proteolytic activity (Fluorescence Units - Arbitrary Units) at 25.0 minutes; control (enzyme alone) 2359.0 (Fluorescence Units - Arbitrary Units) [3]: 2160
